Measurements published in patent US20240026028A1 (JIANGSU HENGRUI PHARMACEUTICALS, published 2024).

Tests used:
[1] = target: T1, HER3 protein (free, coated on the ELISA plate) (UniProt P21860 20-643, limits assumed); test: ELISA, HER3 protein coated on the plate, antibody titrated
T1 construct: also called free HER3 protein
Description: HER3 protein was diluted to 1 μg/mL with pH 7.4 PBS buffer (Shanghai BasalMedia Technologies Co., LTD., B320) and added to a 96-well microplate at 100 μL/well. The plate was incubated at 4° C. overnight. After the liquid was discarded, 300 μL of 5% skim milk (BD, 232100) diluted with PBS was added to each well for blocking, and the plate was incubated at 37° C. for 2 h. After the blocking was completed, the blocking solution was discarded; after the plate was washed 3 times with PBST buffer (pH 7.4 PBS containing 0.1% tween-20), 100 μL of a gradient diluted antibody solution was added to each well, and the plate was incubated at 37° C. for 1 h. After the incubation was completed, the plate was washed 3 times with PBST buffer, and 100 μL of 1:8000 diluted Mouse Anti-HuMan IgG (H+L) (Jackson ImmunoResearch, 209-035-088) was added to each well. The plate was incubated at 37° C. for 1 h. After the plate was washed 3 times with PBST buffer, 100 μL of TMB chromogenic substrate (KPL, 5120-0077) was added to each well, and the plate was incubated at room temperature for 10-15 min. The reaction was terminated by adding 50 μL of 1 M H₂SO₄ to each well. The absorbance readings at 450 nm were taken on a microplate reader, and the binding curves of the antibodies to antigen were fitted with software, as shown in FIG. 1.

[2] = target: T2, HER3 expressed by MCF7 cells (human, UniProt P21860 20-1342); test: flow cytometry on MCF7 cells, geometric mean fluorescence
T2 construct: whole, on cells; Endogenous HER3 on MCF7 cells; also called cells expressing HER3 protein
T2 sequence (P21860 20-1342): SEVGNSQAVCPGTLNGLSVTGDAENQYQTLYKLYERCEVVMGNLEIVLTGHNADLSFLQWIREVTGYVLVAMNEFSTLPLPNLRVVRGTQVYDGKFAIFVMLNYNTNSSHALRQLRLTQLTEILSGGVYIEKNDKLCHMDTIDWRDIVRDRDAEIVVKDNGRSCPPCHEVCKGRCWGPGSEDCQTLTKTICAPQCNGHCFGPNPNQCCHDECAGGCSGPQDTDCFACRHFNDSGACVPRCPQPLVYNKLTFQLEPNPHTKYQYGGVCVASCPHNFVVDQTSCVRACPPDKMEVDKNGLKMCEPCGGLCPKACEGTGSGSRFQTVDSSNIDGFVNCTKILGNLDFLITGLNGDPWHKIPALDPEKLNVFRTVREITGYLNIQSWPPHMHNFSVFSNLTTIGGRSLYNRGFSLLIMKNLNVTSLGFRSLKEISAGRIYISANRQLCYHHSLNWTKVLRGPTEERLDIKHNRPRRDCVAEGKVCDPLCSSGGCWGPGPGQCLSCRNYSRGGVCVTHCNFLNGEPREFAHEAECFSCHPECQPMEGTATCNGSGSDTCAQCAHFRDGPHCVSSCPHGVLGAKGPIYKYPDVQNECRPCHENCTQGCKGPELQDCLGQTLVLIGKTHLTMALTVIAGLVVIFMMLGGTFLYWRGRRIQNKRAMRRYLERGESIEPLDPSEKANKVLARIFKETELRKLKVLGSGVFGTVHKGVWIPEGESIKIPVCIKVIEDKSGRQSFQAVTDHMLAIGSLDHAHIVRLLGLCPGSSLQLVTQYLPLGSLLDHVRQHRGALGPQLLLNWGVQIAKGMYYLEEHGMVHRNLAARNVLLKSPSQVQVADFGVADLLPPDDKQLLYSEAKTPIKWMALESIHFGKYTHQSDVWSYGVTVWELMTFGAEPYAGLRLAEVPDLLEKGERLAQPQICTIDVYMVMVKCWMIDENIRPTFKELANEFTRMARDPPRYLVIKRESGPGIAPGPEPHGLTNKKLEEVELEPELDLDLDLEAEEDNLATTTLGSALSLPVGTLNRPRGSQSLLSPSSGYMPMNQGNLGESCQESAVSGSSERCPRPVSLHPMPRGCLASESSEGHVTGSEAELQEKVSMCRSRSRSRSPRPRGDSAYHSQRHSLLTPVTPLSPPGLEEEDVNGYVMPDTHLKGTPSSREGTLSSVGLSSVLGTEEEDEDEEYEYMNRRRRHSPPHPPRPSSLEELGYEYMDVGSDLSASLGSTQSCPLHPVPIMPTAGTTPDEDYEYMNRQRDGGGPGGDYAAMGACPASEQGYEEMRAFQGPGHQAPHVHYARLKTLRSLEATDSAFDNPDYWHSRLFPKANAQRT
Description: MCF7 cells (ATCC, HTB-22) were suspended in FACS buffer (2% fetal bovine serum (Gibco, 10099141) pH 7.4 PBS (Sigma, P4417-100TAB)) to give a 1×10⁶ cells/mL cell suspension, which was then added to a 96-well round-bottom plate at 100 μL/well. After centrifugation and removal of the supernatant, the test antibody that was diluted with FACS buffer to different concentrations was added at 50 μL/well. The plate was incubated in the dark in a 4° C. refrigerator for 1 h. The plate was washed 3 times with FACS buffer by centrifugation at 300 g, and Alexa Fluor 488 Goat anti-HuMan IgG (H+L) (invitrogen, A-11013) at working concentration was then added. The plate was incubated in the dark in a 4° C. refrigerator for 40 min. The plate was washed 3 times with FACS buffer by centrifugation at 300 g and tested on a BD FACSCantoII flow cytometer for geometric mean fluorescence intensity.

[3] = target: HER3 recombinantly expressed on CHO-K1 cells (human, UniProt P21860 20-643); test: cell-based or functional assay
HER3 recombinantly expressed on CHO-K1 cells, sequence (P21860 20-643): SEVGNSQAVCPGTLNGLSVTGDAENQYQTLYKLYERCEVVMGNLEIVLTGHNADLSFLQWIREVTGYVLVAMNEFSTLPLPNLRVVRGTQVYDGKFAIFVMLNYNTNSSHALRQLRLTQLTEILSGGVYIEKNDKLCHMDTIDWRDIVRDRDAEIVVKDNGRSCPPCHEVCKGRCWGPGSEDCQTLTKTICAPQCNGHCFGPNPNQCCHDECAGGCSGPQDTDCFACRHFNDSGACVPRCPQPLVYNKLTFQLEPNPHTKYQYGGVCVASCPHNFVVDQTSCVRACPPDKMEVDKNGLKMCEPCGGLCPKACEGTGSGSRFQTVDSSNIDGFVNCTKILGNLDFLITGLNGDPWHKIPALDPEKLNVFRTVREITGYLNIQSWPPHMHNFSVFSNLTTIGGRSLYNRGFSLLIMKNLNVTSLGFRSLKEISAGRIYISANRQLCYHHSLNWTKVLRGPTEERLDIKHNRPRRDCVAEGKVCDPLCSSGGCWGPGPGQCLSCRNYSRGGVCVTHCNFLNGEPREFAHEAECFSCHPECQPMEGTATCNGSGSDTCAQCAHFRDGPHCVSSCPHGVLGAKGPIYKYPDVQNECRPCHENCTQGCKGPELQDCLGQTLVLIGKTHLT

T1 sequence (P21860 20-643 limits assumed): as the sequence (P21860 20-643) above

B1: fully human antibody molecule HER3-29 (antibody, human IgG1, kappa, V domains shown)
VH: QVQLVQSGGGLVQPGRSLRLSCAASGFTFDDYAMHWVRQAPGKGLEWVSGISWNSGSIGYADSVKGRFTISRDNAKNSLYLQMNSLRAEDTALYYCAKEGLPGLDYWGQGTLVTVSS
VL: DIQMTQSPSSLSASIGDRATITCRASQHVGTYLNWYQQKPGKTPKLLISGAANLQSGVPSRFSGSGSGTDFTLTISSLQPEDFATYYCQQSYNTPPFSFGQGTKVEIKR
notes: Human IgG1 / kappa; From a fully human natural phage library, expressed in HEK293 and Expi-CHO-S cells; also called antibody HER3-29
EC50 [1]: 0.14 nM
EC50 [2]: 0.057 nM
IC50 (nM) (DT3C antibody endocytosis assay, cell killing) [3]: 0.51 nM

B2: positive control antibody U3 (antibody, human IgG1, kappa, V domains shown)
VH: QVQLQQWGAGLLKPSETLSLTCAVYGGSFSGYYWSWIRQPPGKGLEWIGEINHSGSTNYNPSLKSRVTISVETSKNQFSLKLSSVTAADTAVYYCARDKWTWYFDLWGRGTLVTVSS
VL: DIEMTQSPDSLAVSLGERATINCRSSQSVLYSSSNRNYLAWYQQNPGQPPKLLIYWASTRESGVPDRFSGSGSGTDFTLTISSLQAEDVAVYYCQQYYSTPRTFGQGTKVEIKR
notes: also called U1-59 (WO2007077028A2)
EC50 [1]: 0.56 nM
EC50 [2]: 0.249 nM
IC50 (nM) (DT3C antibody endocytosis assay, cell killing) [3]: 2.81 nM
